How the values were obtained:
[1] = molecular target: GVL peptide-HLA-A2 (hCG beta 47-55 peptide … in HLA-A2 with beta-2 microglobulin) (human); assay: flow cytometry, GVL-pulsed T2 cells, 0.01 µg antibody
[2] = molecular target: GVL peptide-HLA-A2 (hCG beta 47-55 peptide … in HLA-A2 with beta-2 microglobulin) (human); assay: flow cytometry, GVL-pulsed T2 cells, 1 µg antibody
[3] = molecular target: TMT peptide-HLA-A2 (hCG beta 40-48 peptide … in HLA-A2 with beta-2 microglobulin) (human); assay: flow cytometry, TMT-pulsed T2 cells, 1 µg per stain
[4] = molecular target: VLQ peptide-HLA-A2 (hCG beta peptide … in HLA-A2 with beta-2 microglobulin) (human); assay: flow cytometry, VLQ-pulsed T2 cells, 1 µg per stain
[5] = molecular target: GVL peptide-HLA-A2 (hCG beta 47-55 peptide … in HLA-A2 with beta-2 microglobulin) (human); assay: flow cytometry, GVL-pulsed T2 cells, 1 µg per stain
[6] = molecular target: HLA-A2 (HLA-A*0201) class I molecule without a defined test peptide (human); assay: flow cytometry, unpulsed T2 cells, 1 µg per stain
[7] = molecular target: GVL peptide-HLA-A2 (hCG beta 47-55 peptide … in HLA-A2 with beta-2 microglobulin) (human); assay: flow cytometry, T2 cells pulsed with 50 to 0.1 µg/ml GVL peptide
[8] = molecular target: GVL peptide-HLA-A2 (hCG beta 47-55 peptide … in HLA-A2 with beta-2 microglobulin) (human); assay: cell-based or functional assay
[9] = molecular target: TMT peptide-HLA-A2 (hCG beta 40-48 peptide … in HLA-A2 with beta-2 microglobulin) (human); assay: cell-based or functional assay
[10] = molecular target: HLA-A2 (HLA-A*0201) class I molecule without a defined test peptide (human); assay: cell-based or functional assay

Substance	MFI [1] [MFI]	MFI [2] [MFI]	MFI [3] [MFI]	MFI [4] [MFI]	MFI [5] [MFI]	MFI [6] [MFI]	MFI [7] [MFI]	ADCC of MDA-231 cells, human PBMC, E:T 20:1 [8] [%]	ADCC of MDA-MB-231 cells, human PBMC, E:T 30:1, 10 µg/ml 3.2G1 [8] [%]	ADCC of MDA-MB-231 cells, human PBMC, E:T 30:1, 10 µg/ml 3.2G1 (average) [8] [%]	CDC specific lysis of T2 cells pulsed with 50 to 0.1 µg/ml GVL peptide [8] [%]	GVL peptide concentration giving half-maximal CDC lysis [8] [µg/mL]	complement-dependent cytolysis (CDC) of TMT-pulsed T2 cells [9] [%]	CDC specific lysis of GVL-pulsed T2 cells [10] [%]
RL4B (antibody)	14.3	388	7.5	7.3	141	9	10 to 150	6.4 to 13.4	6.8 to 9.6	8.7	6 to 73	6	2	
BB7.2 monoclonal antibody (anti-HLA-A2)							250 to 350							53 to 70
